Results on two molecules are retold here after patent US20100196385A1 (AstraZeneca / MedImmune, published 2010).

Assay [1] deals with T1, human soluble DLL4 (R&D systems catalog #1056-D4-050) (human, UniProt Q9NR61 27-524).
T1 construct: Catalog number as printed; perhaps the same product as #1506-D4; also called antigen DLL4
Put plainly: Biacore T100, antibody immobilised, soluble human DLL4 as analyte. On the procedure: For Biacore analysis, each purified anti-DLL4 antibody was immobilized on a CM5 sensor chip within a T100 using standard amine coupling. Immobilization levels were kept below 200 RU. The concentration of DLL4 was determined by UV-VIS spectroscopy using a molar absorptivity at 280 nm of 110, 440 M⁻¹cm⁻¹, which was calculated from the sequence of the protein using a method developed by Pace et al. (G. R. Grimsley and C. N. Pace (2003) in Current Protocols in Protein Science (John Wiley & Sons, Inc.), 3.1.1-3.1.9). The antigen DLL4 (R&D systems; human catalog #1056-D4-050 or mouse, catalog #1389-D4-050) was diluted to a starting concentration of 32-64 nM and tested in a 3-fold dilution series in triplicate. The running buffer contained HBS-P with 0.1 mg/ml BSA and binding responses were collected at 23° C. Bound complexes were regenerated with a 15 s pulse of 10 mM of sodium hydroxide. The response data were globally fitted with a simple 1:1 interaction model and Table 20 summarizes the kₐ, kd and KD estimates obtained for the anti-DLL4 antibodies when binding to human soluble DLL4 was assessed.
On the technique in general: In SPR one partner is held on a chip, and binding of the other changes the refractive index at the surface.

Assay [2] concerns the target T2, full length human DLL4 (human, UniProt Q9NR61 27-685).
T2 construct: whole, on cells; also called native DLL4 expressed in HEK293 cells
Put plainly: FACS titration, HEK293 cells with human DLL4. On the procedure:
The binding affinities of the purified antibodies for DLL4 was estimated using is both FACS and BIAcore techniques. […] The cells were then washed and incubated with goat anti-human IgG-Fc-Cy5+5 μg/mL 7-Amino-Actinomycin (7AAD) for 30 minutes at 4° C.
In this equation, F=mean fluorescence, LT=total molecular mAb concentration, P′=proportionality constant that relates arbitrary fluorescence units to bound mAb, M=cellular concentration in molarity, n=number of receptors per cell, B=background signal, and KD=equilibrium dissociation constant. For each mAb titration curve an estimate for KD is obtained as P′, n, B, and KD are allowed to float freely in the nonlinear analysis. Table 20 summarizes the affinity estimates for the anti-DLL4 antibodies for human and cynomolgus monkey DLL4 derived using the methodology described above

Assay [3] has as its target T3, full length mouse DLL4 (mouse, UniProt Q9JI71 27-686).
T3 construct: whole, on cells
Put plainly: FACS competition vs rat Notch1/Fc, HEK293 cells with mouse DLL4. As to the method: (§1) Further experiments were performed on selected antibodies using HEK293 cells that were stably transfected with either human, mouse or cynomolgus monkey DLL4 using retroviral constructs. In these experiments, anti-DLL4 antibodies (final concentration: 10-0.01 μg/ml) diluted in PBS containing 2% FCS were added to DLL4-expressing HEK 293 cells (50000 cells/well diluted in PBS containing 2% FCS) and incubated for 1 h at 4° C. Subsequently, Alexa-647 labeled human, rat or APC labeled mouse Notch1/Fc (e.g. R&D Systems, catalog #3647-TK-050, 1057-TK-050, 5267-TK-050, respectively) was added at a final concentration of 0.01-0.5 μg/ml and plates were incubated for a further 2 h at 4° C. prior to washing and reading on a FACSCalibur instrument.

Assay [4] addresses T2, full length human DLL4. Put plainly: FACS competition vs human Notch1/Fc, HEK293 cells with human DLL4. As to the method: as §1

T1 sequence (Q9NR61 27-524 limits assumed): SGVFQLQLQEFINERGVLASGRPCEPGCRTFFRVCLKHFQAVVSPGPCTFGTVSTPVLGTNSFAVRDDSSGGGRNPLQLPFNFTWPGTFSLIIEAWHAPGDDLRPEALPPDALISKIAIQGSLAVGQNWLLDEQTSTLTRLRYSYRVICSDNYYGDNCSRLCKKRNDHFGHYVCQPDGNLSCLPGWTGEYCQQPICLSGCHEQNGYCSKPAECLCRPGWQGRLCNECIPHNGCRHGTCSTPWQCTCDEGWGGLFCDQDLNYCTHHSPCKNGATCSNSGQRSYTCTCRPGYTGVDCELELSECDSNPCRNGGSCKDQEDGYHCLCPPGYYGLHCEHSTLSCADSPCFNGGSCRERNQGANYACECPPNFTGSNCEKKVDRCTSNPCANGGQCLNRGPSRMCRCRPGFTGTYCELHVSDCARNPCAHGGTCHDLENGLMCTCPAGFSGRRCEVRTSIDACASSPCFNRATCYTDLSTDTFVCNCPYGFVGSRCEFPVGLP
T2 sequence (Q9NR61 27-685): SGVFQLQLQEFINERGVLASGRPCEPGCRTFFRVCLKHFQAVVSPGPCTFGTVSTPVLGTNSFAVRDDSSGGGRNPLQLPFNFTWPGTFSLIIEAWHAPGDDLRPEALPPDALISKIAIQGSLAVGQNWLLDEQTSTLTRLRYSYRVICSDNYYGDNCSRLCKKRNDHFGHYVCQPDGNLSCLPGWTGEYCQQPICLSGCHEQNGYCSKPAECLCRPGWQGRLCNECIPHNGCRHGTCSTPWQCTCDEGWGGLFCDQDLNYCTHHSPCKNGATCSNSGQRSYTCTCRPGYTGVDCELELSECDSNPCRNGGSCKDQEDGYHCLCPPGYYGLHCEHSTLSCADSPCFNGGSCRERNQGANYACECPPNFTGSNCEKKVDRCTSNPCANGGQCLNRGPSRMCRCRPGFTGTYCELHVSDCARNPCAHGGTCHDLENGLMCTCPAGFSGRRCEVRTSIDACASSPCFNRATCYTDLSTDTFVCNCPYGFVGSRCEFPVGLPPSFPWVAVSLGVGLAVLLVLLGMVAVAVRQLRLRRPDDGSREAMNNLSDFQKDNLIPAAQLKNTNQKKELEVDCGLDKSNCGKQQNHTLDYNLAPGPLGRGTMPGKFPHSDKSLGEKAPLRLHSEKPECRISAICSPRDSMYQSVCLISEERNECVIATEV
T3 sequence (Q9JI71 27-686): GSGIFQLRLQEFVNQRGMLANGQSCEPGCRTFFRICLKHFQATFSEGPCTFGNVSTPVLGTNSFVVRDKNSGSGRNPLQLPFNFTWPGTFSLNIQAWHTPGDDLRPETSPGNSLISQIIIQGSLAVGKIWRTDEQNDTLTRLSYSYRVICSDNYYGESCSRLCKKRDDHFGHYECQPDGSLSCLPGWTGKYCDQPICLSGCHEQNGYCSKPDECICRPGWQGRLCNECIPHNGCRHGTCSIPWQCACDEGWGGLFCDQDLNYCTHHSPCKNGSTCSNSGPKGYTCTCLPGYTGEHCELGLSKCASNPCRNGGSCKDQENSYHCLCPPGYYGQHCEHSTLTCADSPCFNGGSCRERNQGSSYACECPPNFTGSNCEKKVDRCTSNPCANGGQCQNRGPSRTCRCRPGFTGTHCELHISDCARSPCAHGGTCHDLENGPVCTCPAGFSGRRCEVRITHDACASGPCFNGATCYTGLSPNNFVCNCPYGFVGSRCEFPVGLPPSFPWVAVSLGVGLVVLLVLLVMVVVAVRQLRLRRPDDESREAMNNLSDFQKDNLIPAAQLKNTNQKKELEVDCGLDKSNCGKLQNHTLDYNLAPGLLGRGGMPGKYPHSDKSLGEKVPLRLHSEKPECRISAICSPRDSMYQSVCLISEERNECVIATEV

B1: 21H3RK IgG2 (antibody, V domains shown)
VH: QVQLVQSGAEVKKPGASVKVSCKASGYTFTNYGITWVRQAPGQGPEWMGWISAYNGNTNYAQKLQDRVTVTTDTSTSTAYMELRSLRSDDTAVYYCARDRVPRIPVTTEAFDIWGQGTMVTVSS
VL: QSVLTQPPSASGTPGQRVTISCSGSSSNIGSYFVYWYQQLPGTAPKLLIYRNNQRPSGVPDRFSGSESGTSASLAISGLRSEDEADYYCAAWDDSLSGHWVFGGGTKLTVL
notes: IgG2
With B1, the values for the Kd in assay [1] and in assay [2] were 0.721 nM and 0.225 nM, respectively. The koff (in general, the first-order rate constant of dissociation) in assay [1] came out at 0.00016 s⁻¹. In assay [1], the kon (usually the rate constant with which the complex forms) was found to be 222000 M⁻¹ s⁻¹. In addition, the IC50 (in general, the concentration that inhibits the measured activity by half) in assay [3] turned out to be 15.6 nM; in assay [4], 0.75 nM.

B2: 21H3 IgG2 (antibody, V domains shown)
VH: QVQLVQSGAEVKKPGASVKVSCKASGYTFTNYGITWVRQAPGQGPEWMGWISAYNGNTNYAQKLQDRVTVTTDTSTSTAYMELRSLRSDDTAVYYCARDRVPRIPVTTEAFDIWGQGTMVTVSS
VL: QSVLTQPPSASGTPGQRVTISCSGSSSNIGSYFVYWYQQLPGTAPKLLIYRNNQRPSGVPDRFSGSESGTSASLAISGLRSEDEADYYCAAWDDSLSGHWVFGGGTRLTVL
notes: Formatted as IgG2
As for B2, the results for the Kd in assay [1] and in assay [2] were 0.598 nM and 0.32 nM, respectively. Also, the koff in assay [1] was found to be 0.000155 s⁻¹. Further, the kon in assay [1] amounted to 259000 M⁻¹ s⁻¹. Also, the IC50 in assay [3] came out at 13.5 nM; in assay [4], 0.73 nM.
